According to IntAct's records for PubMed 21358628:

B1: DNA-directed RNA polymerase III subunit RPC3 (Homo sapiens), Q9BUI4 (parent)
chain: MTQAEIKLCSLLLQEHFGEIVEKIGVHLIRTGSQPLRVIAHDTGTSLDQVKKALCVLVQHNLVSYQVHKRGVVEYEAQCSRVLRMLRYPRYIYTTKTLYSDTGELIVEELLLNGKLTMSAVVKKVADRLTETMEDGKTMDYAEVSNTFVRLADTHFVQRCPSVPTTENSDPGPPPPAPTLVINEKDMYLVPKLSLIGKGKRRRSSDEDAAGEPKAKRPKYTTDNKEPIPDDGIYWQANLDRFHQHFRDQAIVSAVANRMDQTSSEIVRTMLRMSEITTSSSAPFTQPLSSNEIFRSLPVGYNISKQVLDQYLTLLADDPLEFVGKSGDSGGGMYVINLHKALASLATATLESVVQERFGSRCARIFRLVLQKKHIEQKQVEDFAMIPAKEAKDMLYKMLSENFMSLQEIPKTPDHAPSRTFYLYTVNILSAARMLLHRCYKSIANLIERRQFETKENKRLLEKSQRVEAIIASMQATGAEEAQLQEIEEMITAPERQQLETLKRNVNKLDASEIQVDETIFLLESYIECTMKRQ
partner: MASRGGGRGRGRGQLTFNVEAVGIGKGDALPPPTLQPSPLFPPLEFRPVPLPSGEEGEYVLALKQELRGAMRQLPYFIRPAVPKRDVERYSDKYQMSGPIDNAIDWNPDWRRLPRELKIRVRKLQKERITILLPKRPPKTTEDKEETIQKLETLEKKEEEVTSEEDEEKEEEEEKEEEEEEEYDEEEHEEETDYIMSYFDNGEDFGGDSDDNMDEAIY
B2: DNA-directed RNA polymerase III subunit RPC3 (Homo sapiens), Q9BUI4 (parent)
chain: B1 chain

Variants of: B1
Conditions: with rpc7l_human POLR3GL

Variant | effect of a mutation on the interaction
L312K | disrupting interaction

Variants of: B2
Conditions: with rpc7_human POLR3G

Variant | effect of a mutation on the interaction
L312K | disrupting interaction
